# According to PMC9943658 (Nucleic Acids Research, 2023):
# B1: His-T7-hnRNP C1 wild type (natural protein, UniProt P07910-2 1-293, looked up)
# chain: MASNVTNKTDPRSMNSRVFIGNLNTLVVKKSDVEAIFSKYGKIVGCSVHKGFAFVQYVNERNARAAVAGEDGRMIAGQVLDINLAAEPKVNRGKAGVKRSAAEMYGSSFDLDYDFQRDYYDRMYSYPARVPPPPPIARAVVPSKRQRVSGNTSRRGKSGFNSKSGQRGSSKSGKLKGDDLQAIKKELTQIKQKVDSLLENLEKIEKEQSKQAVEMKNDKSEEEQSSSSVKKDETNVKMESEGGADDSAEEGDLLDDDDNEDRGDDQLELIKDDEKEAEEGEDDRDSANGEDDS
# B2: His-T7-hnRNP C1 ΔRRMΔBASIC (natural protein)
# chain: MASNVTNKTDPRSMNPKVNRGKAGVKRSAAEMYGSSFDLDYDFQRDYYDRMYSYPARVPPPPPIARALQAIKKELTQIKQKVDSLLENLEKIEKEQSKQAVEMKNDKSEEEQSSSSVKKDETNVKMESEGGADDSAEEGDLLDDDDNEDRGDDQLELIKDDEKEAEEGEDDRDSANGEDDS
# B3: His-T7-hnRNP C1 ΔBASIC (natural protein)
# chain: MASNVTNKTDPRSMNSRVFIGNLNTLVVKKSDVEAIFSKYGKIVGCSVHKGFAFVQYVNERNARAAVAGEDGRMIAGQVLDINLAAEPKVNRGKAGVKRSAAEMYGSSFDLDYDFQRDYYDRMYSYPARVPPPPPIARALQAIKKELTQIKQKVDSLLENLEKIEKEQSKQAVEMKNDKSEEEQSSSSVKKDETNVKMESEGGADDSAEEGDLLDDDDNEDRGDDQLELIKDDEKEAEEGEDDRDSANGEDDS
# Biological target: the molecule itself
# Test: SEC
row,Protein,stoichiometry N
1,B1,4
2,B2,4
3,B3,4
